Key:
[1] = molecular target: cynomolgus Gal3 (cynomolgus); assay: method not stated (FIG. 20)
[2] = molecular target: Recombinant human Gal3 (rhGal3) (TrueBinding, #QC200361) (human) (UniProt P17931); assay: cell-based or functional assay
For % inhibition of CD62L shedding in this document: test concentration or dose not given here.
For % inhibition of IL-6 secretion in this document: test concentration or dose not given here.
For % inhibition of TNFα secretion in this document: test concentration or dose not given here.

Chain of Recombinant human Gal3 (rhGal3) (TrueBinding, #QC200361) (human) (P17931 2-250 limits assumed): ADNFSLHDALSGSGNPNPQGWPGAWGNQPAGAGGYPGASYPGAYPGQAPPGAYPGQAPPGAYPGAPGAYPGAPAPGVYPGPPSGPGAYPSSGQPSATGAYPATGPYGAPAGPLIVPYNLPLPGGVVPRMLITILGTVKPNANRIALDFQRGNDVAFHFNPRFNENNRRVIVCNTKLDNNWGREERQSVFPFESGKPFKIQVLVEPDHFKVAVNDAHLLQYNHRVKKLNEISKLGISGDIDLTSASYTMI
Chain of cynomolgus Gal3 (cynomolgus) (chain, as listed by the source): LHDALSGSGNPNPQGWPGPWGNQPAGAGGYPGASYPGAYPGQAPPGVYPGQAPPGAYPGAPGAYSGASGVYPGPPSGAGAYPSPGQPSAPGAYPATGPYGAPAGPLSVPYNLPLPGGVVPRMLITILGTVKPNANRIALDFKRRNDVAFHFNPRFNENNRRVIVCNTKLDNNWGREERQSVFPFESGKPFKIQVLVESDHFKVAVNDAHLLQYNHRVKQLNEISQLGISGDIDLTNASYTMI

Row | Binder | Kd [1] | % inhibition of CD62L shedding [2] | % inhibition of IL-6 secretion [2] | % inhibition of TNFα secretion [2]
1 | 14D11.2D2 (antibody, from another filing, V domains shown) VH: QVQLKESGPGLVAPSQSLSITCTISGFSLSSYGVHWVRQPPGKGLEWLVVIWSDGSTTYNSTLKSRLSISKDNSKSQVFLKMNSLQTDDTAMYYCARHISNYGTMDYWGQGTSVTVS VL: DIQMTQTTSSLSASLGDRVTISCRASQDIRNYLNWYQQKPDGSIKLLIYYTSRLHSGVPSRFSGSGSGTDYSLTIRNLEQEDIATYFCQHFNTLPPTFGGGTKLEIK |  | 86.2% |  | 
2 | F846C.1H5 (antibody, V domains shown) VH: EVQLLESGGGLVKPGGSLKLSCAASGFTFSSYAMSWVRQTPEKRLEWVASISSGGDTYYPDSVKGRFTISRDNARNILYLQMSSLRSEDTAMYYCASYGNSLFDYWGQGTTLTVSS VL: DVVMTQTPLSLPVSLGDQASISCRSSQSLVHNSGNTYLHWYLQRPGQSPNLLIYKVSNRFSGVPDRFSGSGSGTDFTLKISRVAAEDLGVYFCSQSTHVPPTFGGGTKLEIKR |  | 100% | -49.7% | -162%

The remaining lines, values ahead:

Row | Kd [1] | % inhibition of CD62L shedding [2] | % inhibition of IL-6 secretion [2] | % inhibition of TNFα secretion [2] | Binder
3 | 5.1 nM |  |  |  | TB006 (antibody, human IgG4 S228P, kappa, V domains shown) VH: QVQLVQSGAEVKKPGASVKVSCKASGYSFTNYYMHWVRQAPGQRLEWMGWIYPGSGNTNYNEKFQGRVTITADTSASTAYMELSSLRSEDTAVYYCSTAPGGFDVWGQGTTVTVSS VL: DIVMTQTPLSLSVTPGQPASISCKSSKSLLHSDGITYLYWYLQKPGQSPQLLIYRMSNLASGVPDRFSGSGSGTDFTLKISRVEAEDVGVYYCAQMLEFPLTFGQGTKLEIKR
4 |  | 34.4% | -71.4% | -181% | 847.14H4 (antibody, from a related filing, V domains shown) VH: QIQLVQSGPELTKPGETVKISCKASGYTFTDYGMNWVRQAPGETLKWMGWINTYTGEPTYADDFKGRFAFSLESSASTAYLQINNLKNEDVATYFCARYPMDYWGQGTSVTVSS VL: QAVVTQESALTTSPGETVTLTCRSSTGAVTTSNYANWVQEKPDHLFTGLIGGTNNRAPGVPARFSGSLIGDKAALTITGAQTEDEAIYFCALWYSNHLVFGGGTKLTVL
